Residue numbers refer to the chain shown, from its start.

The series has as its target T1, wild type Cre recombinase, P06956.
T1 chain: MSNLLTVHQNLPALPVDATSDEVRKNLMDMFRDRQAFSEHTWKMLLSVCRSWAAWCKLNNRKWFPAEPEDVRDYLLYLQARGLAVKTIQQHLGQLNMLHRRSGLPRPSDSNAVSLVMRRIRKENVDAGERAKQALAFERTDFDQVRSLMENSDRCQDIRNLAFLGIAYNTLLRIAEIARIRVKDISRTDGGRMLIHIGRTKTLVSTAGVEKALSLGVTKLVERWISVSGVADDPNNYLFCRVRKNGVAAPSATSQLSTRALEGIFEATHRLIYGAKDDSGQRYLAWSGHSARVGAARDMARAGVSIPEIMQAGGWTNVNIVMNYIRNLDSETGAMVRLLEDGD

B1: Cre mutant CM2 [C2(+/-)#4] (protein)
chain: T1 chain with I174A, T258L, R259S, E262H, E266G
As for B1, the “catalytic efficiency of recombination of the asymmetric loxP-M7 substrate (wt Cre-CM2 mixture compared with CM1)” value was “both the wt Cre-CM2 mixture and CM1 demonstrated comparable catalytic efficiency”; the “recombination extent after 30 min (loxP-M7 substrate, wt Cre-CM2 mixture, 30 nM enzyme)” value is listed as “approximately 20% after 30 min”; the “recombination extent after 90 min (loxP-M7 substrate, wt Cre-CM2 mixture, 30 nM enzyme)” value is listed as 25-30% after 90 min; the “recombination rate (observed rate constant, loxP-M7 substrate, wt Cre-CM2 mixture, 30 nM enzyme)” value was 0.034 and 0.048 min-1, respectively. Besides, the “substrate recombination in 1 h (in vitro recombination of loxP-M7 DNA substrate, equal wt Cre-CM2 mixture at 30 nM and 60 nM total enzyme)” value was “approximately 35% substrate recombination in 1 h”.
